Measurements reported in patent publication US20120244131.

System: T1, SC_RAG single-chain meganuclease (I-CreI derived) (artificial sequence)
T1 sequence: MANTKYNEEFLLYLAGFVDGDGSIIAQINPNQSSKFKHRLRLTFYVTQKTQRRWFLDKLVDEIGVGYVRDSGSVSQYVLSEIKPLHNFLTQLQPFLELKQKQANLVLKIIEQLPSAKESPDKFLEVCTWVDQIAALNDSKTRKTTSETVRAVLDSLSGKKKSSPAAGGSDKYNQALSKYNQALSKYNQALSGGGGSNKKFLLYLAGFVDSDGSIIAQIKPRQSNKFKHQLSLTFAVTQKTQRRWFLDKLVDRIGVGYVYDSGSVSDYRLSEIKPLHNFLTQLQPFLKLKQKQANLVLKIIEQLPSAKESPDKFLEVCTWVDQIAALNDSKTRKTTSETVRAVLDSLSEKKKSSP
Assay: cell_activity
Conditions: endogenous locus in 293H, siRNA control AS, deep sequencing, +/-0.13

Substance: endogenous human RAG1 locus target of SC_RAG
- activity (% NHEJ mutagenesis): 0.66
